# B1: Shewanella oneidensis MR-1 HipBso (SO0705) (natural protein, UniProt Q8EIX4 1-78, looked up)
# chain: MASPLNQQSLGLLIKERRKSAALTQDVAAMLCGVTKKTLIRVEKGEDVYISTVFKILDGLGIDIVSAQTSDTETNGWY
# B2: Shewanella oneidensis MR-1 HipAso (SO0706), recombinant wild type (enzyme)
# chain: MSTAKTLTLEMHLGDLMIGELSFDATADTFAVHYTKDWQQSGFPLSPTIPLDGTGTSNQISMFLVNLLPENKGLDYLIESLGVSKGNTFALIRAIGLDTAGAIAFVPKGALLPETQLRPIKAEEVIQRIEDPTMWPMEIWDGKPRLSVAGVQPKLNLFYNGKEFAFAEGTLSSTHIVKFEKYHHLVINEFITMRLAKVLGMNVANVDIVHFGRYKALCVERFDRRNIPGEQRVLRRHIVDSCQALGFSVSKKYERNFGTGRDVKDIREGVSFNRLFSLAAKCRNPVAAKQDMLQWALFNLLTGNADAHGKNYSFFMTPSGMEPTPWYDLVSVDMYEDFEQQLAMAIDDEFDPNSIYAYQLAAFMDGLGLPRNLLISNLTRIARRIPQAIAEVILMLPPLDEDEASFVAHYKTQLLARCERYLGFVDEVRDVEV
# B3: hipBAso operator DNA (26 bp) (dsDNA)
# DNA 1: ATTAGGTGTACTTATCTACACTTTTT
# DNA 2: AAAAAGTGTAGATAAGTACACCTAAT
# What was measured:
# [1] = target: T1, HipAso D306Q active site mutant (non-phosphorylated) (Shewanella oneidensis MR-1, UniProt Q8EIX3 1-433, D306Q); assay: ITC
# T1 sequence: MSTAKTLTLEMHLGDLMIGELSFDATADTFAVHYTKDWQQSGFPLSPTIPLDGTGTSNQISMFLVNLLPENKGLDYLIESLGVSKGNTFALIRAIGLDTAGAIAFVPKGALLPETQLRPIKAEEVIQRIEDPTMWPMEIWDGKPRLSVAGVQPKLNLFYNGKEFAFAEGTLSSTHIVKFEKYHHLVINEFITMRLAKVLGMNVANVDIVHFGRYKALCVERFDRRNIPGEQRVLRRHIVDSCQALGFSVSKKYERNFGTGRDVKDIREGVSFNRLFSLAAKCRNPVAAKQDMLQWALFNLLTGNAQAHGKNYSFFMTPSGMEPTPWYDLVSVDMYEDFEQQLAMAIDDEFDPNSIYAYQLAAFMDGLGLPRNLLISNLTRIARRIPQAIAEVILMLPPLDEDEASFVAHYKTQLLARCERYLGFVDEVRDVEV
# SEC = target: the molecule itself; assay: SEC
# [2] = target: B1; assay: ITC
# HipBso = target: T2, HipBso (Shewanella oneidensis MR-1, UniProt PDB:4PU3_2 1-118); assay: ITC
# T2 sequence: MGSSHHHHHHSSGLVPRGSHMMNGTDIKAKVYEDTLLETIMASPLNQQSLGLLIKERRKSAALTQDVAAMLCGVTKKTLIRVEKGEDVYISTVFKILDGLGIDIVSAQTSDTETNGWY
binder,measurement,setting,value
B1,Kd,[1],300 nM
same,stoichiometry N,SEC,2
B2,stoichiometry N,[2],2 HipAso per HipBso dimer
B3,Kd,HipBso,290 nM

# From paper PMC4150777 (Nucleic Acids Research, 2014)
